Laboratory results reported in US20240409629A1 (CHIA TAI TIANQING PHARMACEUTICAL GROUP, published 2024).

Tests used:
human CLDN18.2 [1] = biological target: human CLDN18.2 (human); test: cell-based or functional assay
human CLDN18.2 [2] = biological target: T1, human CLDN18.2 (human); test: FACS, NUGC-4 cells (natural CLDN18.2)
T1 construct: also called claudin18.2
Protocol: (§1) Based on the FACS method, the binding activity of anti-CLDN18.2 humanized antibodies for the cell lines KATOIII (Cell Bank of the Chinese Academy of Sciences) and NUGC-4 (Cell Bank of the Chinese Academy of Sciences) naturally expressing CLDN18.2 was analyzed. […] See Example 3 for the specific method.

human CLDN18.2 [3] = biological target: T1, human CLDN18.2; test: FACS, KATOIII cells (natural CLDN18.2)
Protocol: as §1

human CLDN18.2 [4] = biological target: T1, human CLDN18.2; test: cell-based or functional assay; remark: listed apart in the source
human CLDN18.2 [5] = biological target: T1, human CLDN18.2; test: FACS, KATOIII cells (natural CLDN18.2); remark: listed apart in the source
Protocol: as §1

human CLDN18.2 [6] = biological target: T1, human CLDN18.2; test: FACS, NUGC-4 cells (natural CLDN18.2); remark: listed apart in the source
Protocol: as §1

human CLDN18.2 [7] = biological target: T1, human CLDN18.2; test: cell-based or functional assay; remark: listed apart in the source
human CLDN18.2 [8] = biological target: T1, human CLDN18.2; test: cell-based or functional assay; remark: listed apart in the source

Binder | ADCC EC50, Jurkat-CD16a v158-NFAT-luciferase effector cells, KATOIII target cells (human CLDN18.2 [1]) [nM] | ADCC EC50, Jurkat-CD16a v158-NFAT-luciferase effector cells, U2OS-CLDN18.2 target cells (human CLDN18.2 [1]) [nM] | EC50 (human CLDN18.2 [2]) [nM] | EC50 (human CLDN18.2 [3]) [nM] | CDC EC50, NIH-3T3-CLDN18.2 target cells (human CLDN18.2 [4]) [nM] | EC50 (human CLDN18.2 [5]) [nM] | EC50 (human CLDN18.2 [6]) [nM] | ADCC EC50, Jurkat-CD16a v158-NFAT-luciferase effector cells, NIH-3T3-CLDN18.2 target cells (human CLDN18.2 [7]) [nM] | ADCC EC50, Jurkat-CD16a v158-NFAT-luciferase effector cells, NUGC-4 target cells (human CLDN18.2 [7]) [nM] | other results
humanized antibody hz28G3-1.2 (antibody, human IgG1, kappa, V domains shown) VH: QVQLVQSGAEVKKPGASVKVSCKASGYTFTDYLMLWVRQAPGQGLEWMGNINPYYGRTYYALKFQGRVTMTVDRSTSTVYMELSSLRSEDTAVYYCARDGYSLRNAMDYWGQGTLVTVSS VL: DIVMTQSPDSLAVSLGERATINCKSSQSLFNSGNQKNYLAWYQQKPGQPPKLLIYGASTRESGVPDRFSGSGSGTDFTLTISSLQAEDVAVYYCQNAHSYPYTFGQGTKVEIKR | 0.396 | 0.015 | 14.1 | 5.84 | – | – | – | – | – | –
humanized antibody hz40F6-1.3 (antibody, human IgG1, kappa, V domains shown) VH: QVQLVESGGGVVQPGRSLRLSCAASGFTLTSYGVYWVRQAPGKGLEWVAVVWAGGNTNYADALKGRFTISKDNSKSTLYLQMNSLRAEDTAVYYCARDRGRLLAMDYWGQGTLVTVSS VL: DIVMTQSPDSLAVSLGERATINCKSSQSLLNSGNQKNYLAWYQQKPGQPPKLLIYGASTRESGVPDRFTGSGSGTDFTLTISSLQAEDVAVYYCQNDHFFPFTFGQGTKVEIKR | – | – | – | – | 0.84 | 7.9 | 17.7 | 0.017 | 0.023 | –
humanized antibody hz40F6-1.1 (antibody, human IgG1, kappa, V domains shown) VH: QVQLVESGGGVVQPGRSLRLSCAASGFTLTSYGVYWVRQAPGKGLEWVAVVWAGGNTNYADSVKGRFTISKDNSKSTLYLQMNSLRAEDTAVYYCARDRGRLLAMDYWGQGTLVTVSS VL: DIVMTQSPDSLAVSLGERATINCKSSQSLLNSGNQKNYLAWYQQKPGQPPKLLIYGASTRESGVPDRFTGSGSGTDFTLTISSLQAEDVAVYYCQNDHFFPFTFGQGTKVEIKR | – | – | – | – | 1.47 | 8.24 | 20 | 0.013 | 0.045 | –
humanized antibody hz28G3-1.4 (antibody, human IgG1, kappa, V domains shown) VH: QVQLVQSGAEVKKPGASVKVSCKASGYTFTDYLMLWVRQAHGQSLEWMGNINPYYGRTYYALKFQGRVTMTVDRSTSTVYMELSSLRSEDTAVYYCARDGYSLRNAMDYWGQGTLVTVSS VL: DIVMTQSPDSLAVSLGERATINCKSSQSLFNSGNQKNYLAWYQQKPGQPPKLLIYGASTRESGVPDRFSGSGSGTDFTLTISSLQAEDVAVYYCQNAHSYPYTFGQGTKVEIKR | 0.184 | 0.017 | 14 | 5.83 | – | – | – | – | – | –
humanized antibody hz28G3-2.1 (antibody, human IgG1, kappa, V domains shown) VH: QVQLVQSGAEVKKPGASVKVSCKTSGYSFTDYLMLWVRQAPGQGLEWMGNINPYYGRTTYALKFKGRVTMTVDRSTSTVYMELSSLRSEDTAVYYCARDGYSLRNAMDYWGQGTLVTVSS VL: DIVMTQSPYSLAVSLGERATINCKSSQSLFNSGNQKNYLAWYQQKPGQPPKLLIYGASTRESGVPDRFTGSGSGTDFTLTISSLQAEDVAVYYCQNAHSYPYTFGQGTKVEIKR | 0.184 | 0.019 | 12.1 | 7.25 | – | – | – | – | – | –
humanized antibody hz40F6-2.4 (antibody, human IgG1, kappa, V domains shown) VH: QVQLVESGGGVVQPGRSLRLSCTVSGFTLTSYGVYWVRQAPGKGLEWVAVVWAGGNTNYNSALKGRFTISKDNSKSTLYLQMNSLRAEDTAVYYCARDRGRLLAMDYWGQGTLVTVSS VL: DIVMTQSPDSLAVSLGERATINCKSSQSLLNSGNQKNYLAWYQQKPGQPPKLLIYGASTRESGVPDRFSGSGSGTDFTLTISSLQAEDVAVYYCQNDYFFPFTFGQGTKVEIKR | – | – | – | – | 0.89 | 6.38 | 13.3 | 0.014 | 0.03 | –
humanized antibody hz40F6-2.2 (antibody, human IgG1, kappa, V domains shown) VH: QVQLVESGGGVVQPGRSLRLSCAASGFTLTSYGVYWVRQAPGKGLEWVAVVWAGGNTNYNSALMSRFTISKDNSKSTLYLQMNSLRAEDTAVYYCARDRGRLLAMDYWGQGTLVTVSS VL: DIVMTQSPDSLAVSLGERATINCKSSQSLLNSGNQKNYLAWYQQKPGQPPKLLIYGASTRESGVPDRFSGSGSGTDFTLTISSLQAEDVAVYYCQNDYFFPFTFGQGTKVEIKR | – | – | – | – | 0.53 | 7.54 | 14.9 | 0.01 | 0.019 | –
humanized antibody hz40F6-1.4 (antibody, human IgG1, kappa, V domains shown) VH: QVQLVESGGGVVQPGRSLRLSCTVSGFTLTSYGVYWVRQAPGKGLEWVAVVWAGGNTNYNSALKGRFTISKDNSKSTLYLQMNSLRAEDTAVYYCARDRGRLLAMDYWGQGTLVTVSS VL: DIVMTQSPDSLAVSLGERATINCKSSQSLLNSGNQKNYLAWYQQKPGQPPKLLIYGASTRESGVPDRFTGSGSGTDFTLTISSLQAEDVAVYYCQNDHFFPFTFGQGTKVEIKR | – | – | – | – | 0.55 | 6.44 | 10.6 | 0.024 | 0.017 | ADCC EC50, PBMC effector cells, KATOIII target cells (human CLDN18.2 [8]): 0.1 nM; ADCC EC50, PBMC effector cells, NIH-3T3-CLDN18.2 target cells (human CLDN18.2 [8]): 0.31 nM; ADCC EC50, PBMC effector cells, NUGC-4 target cells (human CLDN18.2 [8]): 0.12 nM; ADCC Maximum killing (%), PBMC effector cells, KATOIII target cells (human CLDN18.2 [8]): 13.3%; ADCC Maximum killing (%), PBMC effector cells, NIH-3T3-CLDN18.2 target cells (human CLDN18.2 [8]): 24.6%; ADCC Maximum killing (%), PBMC effector cells, NUGC-4 target cells (human CLDN18.2 [8]): 2.83%
humanized antibody hz28G3-2.3 (antibody, human IgG1, kappa, V domains shown) VH: QVQLVQSGAEVKKPGASVKVSCKTSGYSFTDYLMLWVRQAHGQSLEWMGNINPYYGRTTYALKFKGRVTMTVDRSTSTVYMELSSLRSEDTAVYYCARDGYSLRNAMDYWGQGTLVTVSS VL: DIVMTQSPYSLAVSLGERATINCKSSQSLFNSGNQKNYLAWYQQKPGQPPKLLIYGASTRESGVPDRFTGSGSGTDFTLTISSLQAEDVAVYYCQNAHSYPYTFGQGTKVEIKR | 0.209 | 0.019 | 11.9 | 6.54 | – | – | – | – | – | –
humanized antibody hz28G3-2.2 (antibody, human IgG1, kappa, V domains shown) VH: QVQLVQSGAEVKKPGASVKVSCKASGYTFTDYLMLWVRQAPGQGLEWMGNINPYYGRTYYALKFQGRVTMTVDRSTSTVYMELSSLRSEDTAVYYCARDGYSLRNAMDYWGQGTLVTVSS VL: DIVMTQSPYSLAVSLGERATINCKSSQSLFNSGNQKNYLAWYQQKPGQPPKLLIYGASTRESGVPDRFTGSGSGTDFTLTISSLQAEDVAVYYCQNAHSYPYTFGQGTKVEIKR | 0.861 | 0.017 | 12.4 | 5.92 | – | – | – | – | – | –
humanized antibody hz40F6-1.2 (antibody, human IgG1, kappa, V domains shown) VH: QVQLVESGGGVVQPGRSLRLSCAASGFTLTSYGVYWVRQAPGKGLEWVAVVWAGGNTNYNSALMSRFTISKDNSKSTLYLQMNSLRAEDTAVYYCARDRGRLLAMDYWGQGTLVTVSS VL: DIVMTQSPDSLAVSLGERATINCKSSQSLLNSGNQKNYLAWYQQKPGQPPKLLIYGASTRESGVPDRFTGSGSGTDFTLTISSLQAEDVAVYYCQNDHFFPFTFGQGTKVEIKR | – | – | – | – | 0.54 | 7.42 | 16 | 0.03 | 0.019 | –
humanized antibody hz40F6-2.1 (antibody, human IgG1, kappa, V domains shown) VH: QVQLVESGGGVVQPGRSLRLSCAASGFTLTSYGVYWVRQAPGKGLEWVAVVWAGGNTNYADSVKGRFTISKDNSKSTLYLQMNSLRAEDTAVYYCARDRGRLLAMDYWGQGTLVTVSS VL: DIVMTQSPDSLAVSLGERATINCKSSQSLLNSGNQKNYLAWYQQKPGQPPKLLIYGASTRESGVPDRFSGSGSGTDFTLTISSLQAEDVAVYYCQNDYFFPFTFGQGTKVEIKR | – | – | – | – | 3.8 | 8.77 | 18.7 | 0.012 | 0.149 | –
humanized antibody hz40F6-2.3 (antibody, human IgG1, kappa, V domains shown) VH: QVQLVESGGGVVQPGRSLRLSCAASGFTLTSYGVYWVRQAPGKGLEWVAVVWAGGNTNYADALKGRFTISKDNSKSTLYLQMNSLRAEDTAVYYCARDRGRLLAMDYWGQGTLVTVSS VL: DIVMTQSPDSLAVSLGERATINCKSSQSLLNSGNQKNYLAWYQQKPGQPPKLLIYGASTRESGVPDRFSGSGSGTDFTLTISSLQAEDVAVYYCQNDYFFPFTFGQGTKVEIKR | – | – | – | – | 0.9 | 6.13 | 16.2 | 0.014 | 0.028 | –
humanized antibody hz28G3-2.4 (antibody, human IgG1, kappa, V domains shown) VH: QVQLVQSGAEVKKPGASVKVSCKASGYTFTDYLMLWVRQAHGQSLEWMGNINPYYGRTYYALKFQGRVTMTVDRSTSTVYMELSSLRSEDTAVYYCARDGYSLRNAMDYWGQGTLVTVSS VL: DIVMTQSPYSLAVSLGERATINCKSSQSLFNSGNQKNYLAWYQQKPGQPPKLLIYGASTRESGVPDRFTGSGSGTDFTLTISSLQAEDVAVYYCQNAHSYPYTFGQGTKVEIKR | 0.275 | 0.017 | 14.2 | 5.62 | – | – | – | – | – | –
